How the values were obtained:
human CCR8 [1] = target: T1, human CCR8 (human, UniProt P51685 1-355); test: flow cytometry on CHO cells expressing human CCR8, MFI of PE
T1 construct: whole, on cells; The construct expressed in the CHO cells is not described further; also called hCCR8; C-C motif chemokine receptor 8
Protocol: (§1) Binding abilities of 4-1BB×CCR8 bispecific antibodies to CHO cells expressing human CCR8 were evaluated. About 50,000 CHO cells expressing human CCR8 were incubated with serially diluted antibodies (4-1BB-2×CCR8-2 (LC1) BsAb, 4-1BB-2×CCR8-2 (LC2) BsAb and 4-1BB-2×CCR8-2 (HC) BsAb) in FACS buffer (PBS+0.5% BSA) for 30 minutes on ice. After incubation, cells were washed twice and detected with anti-human The mean fluorescence intensity (MFI of PE) of each antibody was determined and plotted using GraphPad Prism software (Version 9.4.1; GraphPad Software Inc.). As shown in FIGS. 13A-13B, all the three 4-1BB×CCR8 bispecific antibodies bind to CHO cells expressing human CCR8 very well.

human CCR8 [2] = target: T1, human CCR8; test: flow cytometry on CHO cells expressing human CCR8, percent of positive cells
Protocol: as §1, with “After incubation, cells were washed twice and detected with anti-human The mean fluorescence intensity (MFI of PE) of each antibody was determined and plotted using GraphPad Prism software (Version 9.4.1; GraphPad Software Inc.).” left out

human 4-1BB = target: T2, human 4-1BB (human, UniProt Q07011 24-255); test: flow cytometry on CHO cells expressing human 4-1BB, anti-human IgG PE secondary antibody, percent of positive cells
T2 construct: whole, on cells; The construct expressed in the CHO cells is not described further; also called h4-1BB; CD137
Protocol: Binding abilities of 4-1BB×CCR8 bispecific antibodies (BsAb) to CHO cells expressing human 4-1BB were evaluated. About 50,000 CHO cells expressing human 4-1BB were incubated with serially diluted antibodies (4-1BB-2×CCR8-2 (LC1) BsAb, 4-1BB-2×CCR8-2 (LC2) BsAb, and 4-1BB-2×CCR8-2 (HC) BsAb) in FACS buffer (PBS+0.5% BSA) for 30 minutes on ice. After incubation, cells were washed twice and detected with anti-human IgG PE secondary antibody (Jackson ImmunoResearch, Cat. #: 109-116-170). […] As shown in FIGS. 12A-12B, all the three 4-1BB×CCR8 bispecific antibodies bind to CHO cells expressing human 4-1BB very well.

T2 sequence (Q07011 24-255): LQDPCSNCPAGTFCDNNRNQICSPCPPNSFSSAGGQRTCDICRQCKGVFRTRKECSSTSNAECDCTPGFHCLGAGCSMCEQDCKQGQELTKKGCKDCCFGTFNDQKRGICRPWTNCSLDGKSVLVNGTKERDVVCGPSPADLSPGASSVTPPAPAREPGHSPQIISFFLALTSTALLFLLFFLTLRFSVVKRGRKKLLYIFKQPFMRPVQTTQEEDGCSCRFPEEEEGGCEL
T1 sequence (P51685 whole entry): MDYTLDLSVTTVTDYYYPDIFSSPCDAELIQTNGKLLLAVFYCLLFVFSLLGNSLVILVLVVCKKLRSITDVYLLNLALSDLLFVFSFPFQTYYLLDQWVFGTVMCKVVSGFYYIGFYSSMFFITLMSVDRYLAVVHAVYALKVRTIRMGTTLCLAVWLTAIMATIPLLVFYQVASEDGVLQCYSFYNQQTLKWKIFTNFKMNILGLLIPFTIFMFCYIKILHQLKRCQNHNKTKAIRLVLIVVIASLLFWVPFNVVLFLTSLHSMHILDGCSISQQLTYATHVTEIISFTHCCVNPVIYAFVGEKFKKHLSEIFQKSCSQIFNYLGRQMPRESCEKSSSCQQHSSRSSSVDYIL

Row | Binder | EC50 (read off the curve) (human CCR8 [1]) | EC50 (read off the curve) (human CCR8 [2]) | EC50 (read off the curve) (human 4-1BB) | binding result (human CCR8 [1])
1 | 4-1BB-2×CCR8-2 (LC1) BsAb (bispecific antibody, human IgG1, kappa, The light chain is the 4-1BB-2 scFv (VL-linker-VH) joined by a linker to the N-terminus of the CCR8-2 kappa light chain; also called 4-1BB-2×CCR8-2 (LC1) bispecific antibody) heavy: not shown light: DVVLTQSPLSLPVTLGQPASISCRSSQSLLDSDGNTYLYWFQQRPGQSPRRLIYLVSNLGSGVPDRFSGSGSGTDFTLKISRVEAEDVGVYYCMQPTHAPYTFGQGTKLEIKGGGGSGGGGSGGGGSGGGGSEVQLVQSGAEVKKPGSSVKVSCKASDYTFNDYWVSWVRQAPGQGLEWIGEIYPNSGATNFNGKFRGRATLTVDNSASTAYMELSSLRSEDTAVYYCTREYTRDWFAYWGQGTLVTVSSGGGGSGGGGSGGGGSDIVMTQTPLSLSVTPGQPASISCRSSQSLFHSSGNTYLHWYLQKPGQPPQLLIYKVSNRFSGVPDRFSGSGSGTDFTLKISRVEAEDVGVYYCSQSTHVPFTFGQGTKLEIKRTVAAPSVFIFPPSDEQLKSGTASVVCLLNNFYPREAKVQWKVDNALQSGNSQESVTEQDSKDSTYSLSSTLTLSKADYEKHKVYACEVTHQGLSSPVTKSFNRGEC | ~2 nM | ~0.3 nM | ~0.06 nM | 
2 | 4-1BB-2×CCR8-2 (LC2) BsAb (bispecific antibody, human IgG1, kappa, The light chain is the CCR8-2 kappa light chain with the 4-1BB-2 scFv (VL-linker-VH) joined by a linker to its C-terminus; also called 4-1BB-2×CCR8-2 (LC2) bispecific antibody) heavy: not shown light: DIVMTQTPLSLSVTPGQPASISCRSSQSLFHSSGNTYLHWYLQKPGQPPQLLIYKVSNRFSGVPDRFSGSGSGTDFTLKISRVEAEDVGVYYCSQSTHVPFTFGQGTKLEIKRTVAAPSVFIFPPSDEQLKSGTASVVCLLNNFYPREAKVQWKVDNALQSGNSQESVTEQDSKDSTYSLSSTLTLSKADYEKHKVYACEVTHQGLSSPVTKSFNRGECGGGGSGGGGSGGGGSDVVLTQSPLSLPVTLGQPASISCRSSQSLLDSDGNTYLYWFQQRPGQSPRRLIYLVSNLGSGVPDRFSGSGSGTDFTLKISRVEAEDVGVYYCMQPTHAPYTFGQGTKLEIKGGGGSGGGGSGGGGSGGGGSEVQLVQSGAEVKKPGSSVKVSCKASDYTFNDYWVSWVRQAPGQGLEWIGEIYPNSGATNFNGKFRGRATLTVDNSASTAYMELSSLRSEDTAVYYCTREYTRDWFAYWGQGTLVTVSS |  |  | ~0.7 nM | binds
3 | 4-1BB-2×CCR8-2 (HC) BsAb (bispecific antibody, human IgG1, kappa, The light chain is the CCR8-2 kappa light chain; also called 4-1BB-2×CCR8-2 (HC) bispecific antibody) heavy: not shown light: DIVMTQTPLSLSVTPGQPASISCRSSQSLFHSSGNTYLHWYLQKPGQPPQLLIYKVSNRFSGVPDRFSGSGSGTDFTLKISRVEAEDVGVYYCSQSTHVPFTFGQGTKLEIKRTVAAPSVFIFPPSDEQLKSGTASVVCLLNNFYPREAKVQWKVDNALQSGNSQESVTEQDSKDSTYSLSSTLTLSKADYEKHKVYACEVTHQGLSSPVTKSFNRGEC |  |  | ~0.7 nM | binds

From US20250129174A1 (LTZ THERAPEUTICS, published 2025)
